Series [1] can be described thus: Substrate specificity: reaction rate on various substrates at 1% concentration. It counts as biochemical. The protocol:
^a The enzymatic activities of each glucoamylase were determined with
the substrates present at a 1% concentration; each enzyme' s activity in
relation to dextrin was assigned the value 100, and the activities on the
other substrates are presented as relative
(§1) A 0.5-ml aliquot of a suitably diluted enzyme solution was added to 0.5 ml of a 2% solution of a spray-dried maltodextrin (D.E. about 10) in 0.1 M acetate buffer solution (pH 6.0) and this was incubated at 60° C. for precisely 10 minutes. The enzyme reaction was then stopped by heating the mixture for 5 minutes in a boiling water bath. The amount of dextrose produced was determined by the glucose oxidase method. The amount of enzyme producing 1 micromole of dextrose per minute was defined as 1 unit.

Series [2] in a line: Relationship between reaction pH and enzymatic activity (optimum pH). In kind it is biochemical. Conditions: values marked with an asterisk (own). The protocol:
as §1

The format of series [3] is biochemical. Conditions: values marked with an asterisk (own).
Series [4] in a line: Saccharification of about 30% starch hydrolyzate to dextrose. It counts as biochemical. Conditions: same substrate concentration as Example 3; pH 4.3 at 60° C.

B1: Aspergillus niger Glucoamylase: conventional glucoamylase from Aspergillus niger, available from Enzyme Development Corporation (protein, UniProt P69328 25-640, looked up)
Glucoamylase: ATLDSWLSNEATVARTAILNNIGADGAWVSGADSGIVVASPSTDNPDYFYTWTRDSGLVLKTLVDLFRNGDTSLLSTIENYISAQAIVQGISNPSGDLSSGAGLGEPKFNVDETAYTGSWGRPQRDGPALRATAMIGFGQWLLDNGYTSTATDIVWPLVRNDLSYVAQYWNQTGYDLWEEVNGSSFFTIAVQHRALVEGSAFATAVGSSCSWCDSQAPEILCYLQSFWTGSFILANFDSSRSGKDANTLLGSIHTFDPEAACDDSTFQPCSPRALANHKEVVDSFRSIYTLNDGLSDSEAVAVGRYPEDTYYNGNPWFLCTLAAAEQLYDALYQWDKQGSLEVTDVSLDFFKALYSDAATGTYSSSSSTYSSIVDAVKTFADGFVSIVETHAASNGSMSEQYDKSDGEQLSARDLTWSYAALLTANNRRNSVVPASWGETSASSVPGTCAATSAIGTYSSVTVTSWPSIVATGGTTTTATPTGSGSVTSTSKTTATASKTSTSTSSTSCTTPTAVAVTFDLTATTTYGENIYLVGSISQLGDWETSDGIALSADKYTSSDPLWYVTVTLPAGESFEYKFIRIESDDSVEWESDPNREYTVPQACGTSTATVTDTWR
With B1, the “Reaction Rate” value in series [1] (substrate Amylpectin, relative to dextrin = 100) turned out to be 113; in series [1] (substrate Dextrin (D.E. 10), relative, activity on dextrin assigned 100) it was 100; in series [1] (substrate Glycogen, relative to dextrin = 100), 100; in series [1] (substrate Maltohexaose, relative to dextrin = 100), 100; in series [1] (substrate Maltose, relative to dextrin = 100), 26; in series [1] (substrate Maltotriose, relative to dextrin = 100), 12. The “Reaction Rate” value in series [1] (substrate Panose, relative to dextrin = 100) amounted to 47; in series [1] (substrate Pullulan, relative to dextrin = 100), 2; in series [1] (substrate Soluble Starch, relative to dextrin = 100), 95. Further, the “Optimum pH” value in series [2] is 4.5. In addition, in series [3], the “Optimum Temp.” value turned out to be 70 °C. In series [4], this molecule registered a dextrose yield of 96.5%.

Values taken from patent US4254225A, “Novel neutral glucoamylase and method for its production” (priority 1978, dated 1981).
